Our source for the Kd values is patent US20210179716A1 (Pfizer, published 2021).

Bounds are passed on as bounds.

One assay deals with T1, human CD47 protein (human, UniProt Q08722 19-139, limits assumed).
T1 construct: Soluble protein used for the KD measurements; construct not described; also called hCD47; CD47 (human)
Briefly: KD; method not stated.

Another assay addresses T2, cynomolgus CD47 protein (cynomolgus monkey, UniProt A0A2K5X523 19-139).
T2 construct: also called cyCD47; Cyno CD47
Briefly: KD; method not stated.

T1 sequence (Q08722 19-139 limits assumed): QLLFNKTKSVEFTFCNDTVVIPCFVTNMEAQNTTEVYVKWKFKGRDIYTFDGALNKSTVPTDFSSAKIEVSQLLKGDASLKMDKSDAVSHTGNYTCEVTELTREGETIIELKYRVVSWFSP

B1: P1A11_D99E (antibody, V domains shown)
VH: QVQLVQSGAEVKKPGSSVKVSCKASGYTFTNYAISWVRQAPGQGLEWMGGISPLFGTANYAQKFQGRVTITADESTSTAYMELSSLRSEDTAVYYCAREGGRSSDVGWYVGAMDVWGQGTLVTVSS
VL: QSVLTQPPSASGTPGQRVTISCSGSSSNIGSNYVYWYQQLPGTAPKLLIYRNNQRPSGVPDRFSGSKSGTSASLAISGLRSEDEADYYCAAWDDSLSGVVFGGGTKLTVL
notes: Variant of P01A11
The term Kd denotes the free concentration of one partner at which half of the binding sites on the other are occupied at equilibrium, for simple one-to-one binding. For the molecule B1, the Kd was 1200 nM in the assay with human CD47 protein and above 1500 nM in the assay with cynomolgus CD47 protein.

B2: P01A11_L54A_D114E (antibody, V domains shown)
VH: QVQLVQSGAEVKKPGSSVKVSCKASGYTFTNYAISWVRQAPGQGLEWMGGISPAFGTANYAQKFQGRVTITADESTSTAYMELSSLRSEDTAVYYCARDGGRSSDVGWYVGAMEVWGQGTLVTVSS
VL: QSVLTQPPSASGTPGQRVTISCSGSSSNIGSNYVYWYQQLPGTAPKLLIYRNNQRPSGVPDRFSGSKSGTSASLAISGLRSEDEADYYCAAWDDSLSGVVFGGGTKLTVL
notes: Variant of P01A11
With B2, the Kd is 31 nM with human CD47 protein and 46 nM with cynomolgus CD47 protein.

B3: P01A11_D105E (antibody, V domains shown)
VH: QVQLVQSGAEVKKPGSSVKVSCKASGYTFTNYAISWVRQAPGQGLEWMGGISPLFGTANYAQKFQGRVTITADESTSTAYMELSSLRSEDTAVYYCARDGGRSSEVGWYVGAMDVWGQGTLVTVSS
VL: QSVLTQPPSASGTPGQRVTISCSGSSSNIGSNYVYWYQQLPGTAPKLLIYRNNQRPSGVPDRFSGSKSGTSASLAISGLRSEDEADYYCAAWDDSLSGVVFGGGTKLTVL
notes: Variant of P01A11
For B3, the dissociation constant Kd in the assay with human CD47 protein stood at 48 nM; in the assay with cynomolgus CD47 protein it was 62 nM.

B4: P01A11_G100V (antibody, V domains shown)
VH: QVQLVQSGAEVKKPGSSVKVSCKASGYTFTNYAISWVRQAPGQGLEWMGGISPLFGTANYAQKFQGRVTITADESTSTAYMELSSLRSEDTAVYYCARDVGRSSDVGWYVGAMDVWGQGTLVTVSS
VL: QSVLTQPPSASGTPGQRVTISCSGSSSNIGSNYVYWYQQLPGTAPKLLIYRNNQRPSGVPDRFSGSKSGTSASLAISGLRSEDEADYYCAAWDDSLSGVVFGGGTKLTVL
notes: Variant of P01A11
Regarding B4, the Kd with human CD47 protein and with cynomolgus CD47 protein was above 1500 nM each time.

B5: P1A11_L54I (antibody, V domains shown)
VH: QVQLVQSGAEVKKPGSSVKVSCKASGYTFTNYAISWVRQAPGQGLEWMGGISPIFGTANYAQKFQGRVTITADESTSTAYMELSSLRSEDTAVYYCARDGGRSSDVGWYVGAMDVWGQGTLVTVSS
VL: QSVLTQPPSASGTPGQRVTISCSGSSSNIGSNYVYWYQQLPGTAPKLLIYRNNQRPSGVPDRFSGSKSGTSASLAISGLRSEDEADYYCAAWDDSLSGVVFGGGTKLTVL
notes: Variant of P01A11
B5: the figures for the dissociation constant (Kd) with human CD47 protein and with cynomolgus CD47 protein were 0.69 nM and 1.3 nM, respectively.

B6: P01A11_L54A_R102A (antibody, V domains shown)
VH: QVQLVQSGAEVKKPGSSVKVSCKASGYTFTNYAISWVRQAPGQGLEWMGGISPAFGTANYAQKFQGRVTITADESTSTAYMELSSLRSEDTAVYYCARDGGASSDVGWYVGAMDVWGQGTLVTVSS
VL: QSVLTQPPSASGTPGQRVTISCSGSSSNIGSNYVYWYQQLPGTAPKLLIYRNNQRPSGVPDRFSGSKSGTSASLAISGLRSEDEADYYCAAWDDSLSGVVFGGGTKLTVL
notes: Variant of P01A11
For the molecule B6, the figures for the dissociation constant (Kd) with human CD47 protein and with cynomolgus CD47 protein were 38 nM and 45 nM, respectively.

B7: P1A11_G100A (antibody, V domains shown)
VH: QVQLVQSGAEVKKPGSSVKVSCKASGYTFTNYAISWVRQAPGQGLEWMGGISPLFGTANYAQKFQGRVTITADESTSTAYMELSSLRSEDTAVYYCARDAGRSSDVGWYVGAMDVWGQGTLVTVSS
VL: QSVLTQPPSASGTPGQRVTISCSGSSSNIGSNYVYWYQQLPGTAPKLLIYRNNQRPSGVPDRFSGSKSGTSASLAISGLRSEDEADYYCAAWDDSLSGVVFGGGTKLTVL
notes: Variant of P01A11
For the molecule B7, the Kd with human CD47 protein amounted to 8.5 nM; with cynomolgus CD47 protein, 11 nM.

B8: P1A11_G100Q (antibody, V domains shown)
VH: QVQLVQSGAEVKKPGSSVKVSCKASGYTFTNYAISWVRQAPGQGLEWMGGISPLFGTANYAQKFQGRVTITADESTSTAYMELSSLRSEDTAVYYCARDQGRSSDVGWYVGAMDVWGQGTLVTVSS
VL: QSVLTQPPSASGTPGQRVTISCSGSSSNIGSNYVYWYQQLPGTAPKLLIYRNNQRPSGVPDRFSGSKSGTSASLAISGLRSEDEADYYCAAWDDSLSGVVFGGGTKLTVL
notes: Variant of P01A11
Consider B8, for which the Kd with human CD47 protein and in the assay with cynomolgus CD47 protein was above 1500 nM in each case.

B9: P1A11_F55L (antibody, V domains shown)
VH: QVQLVQSGAEVKKPGSSVKVSCKASGYTFTNYAISWVRQAPGQGLEWMGGISPLLGTANYAQKFQGRVTITADESTSTAYMELSSLRSEDTAVYYCARDGGRSSDVGWYVGAMDVWGQGTLVTVSS
VL: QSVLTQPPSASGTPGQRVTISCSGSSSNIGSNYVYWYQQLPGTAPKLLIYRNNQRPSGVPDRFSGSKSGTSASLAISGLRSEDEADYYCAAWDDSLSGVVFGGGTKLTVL
notes: Variant of P01A11
Consider B9, for which the dissociation constant Kd with human CD47 protein came to 2.7 nM; with cynomolgus CD47 protein, 3.3 nM.

B10: P1A11_G100S (antibody, V domains shown)
VH: QVQLVQSGAEVKKPGSSVKVSCKASGYTFTNYAISWVRQAPGQGLEWMGGISPLFGTANYAQKFQGRVTITADESTSTAYMELSSLRSEDTAVYYCARDSGRSSDVGWYVGAMDVWGQGTLVTVSS
VL: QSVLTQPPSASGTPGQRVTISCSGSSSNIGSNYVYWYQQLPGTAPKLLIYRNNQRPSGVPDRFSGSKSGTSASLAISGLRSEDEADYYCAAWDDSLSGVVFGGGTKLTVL
notes: Variant of P01A11
In the case of B10, the figures for the Kd with human CD47 protein and with cynomolgus CD47 protein were 28 nM and 36 nM, respectively.

B11: P01A11_L54A_S104E (antibody, V domains shown)
VH: QVQLVQSGAEVKKPGSSVKVSCKASGYTFTNYAISWVRQAPGQGLEWMGGISPAFGTANYAQKFQGRVTITADESTSTAYMELSSLRSEDTAVYYCARDGGRSEDVGWYVGAMDVWGQGTLVTVSS
VL: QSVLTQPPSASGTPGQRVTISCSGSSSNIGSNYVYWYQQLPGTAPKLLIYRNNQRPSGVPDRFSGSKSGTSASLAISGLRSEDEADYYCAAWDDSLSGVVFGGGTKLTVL
notes: Variant of P01A11
For B11, the Kd with human CD47 protein worked out at 19 nM; in the assay with cynomolgus CD47 protein, 16 nM.
